Experimental data reported in patent US20220275053A1, “MODIFIED […] PEPTIDE LIGANDS” (BicycleTx Limited, priority 2019, published 2022).
*1 amine or outer side, *2 acyl side, *3 side chain or, on linkers, in order; H or OH if unused. Bridges are numbered along the chain shown (N, C = ends). [ ]: non-standard residue; d: D form. TATA = O=C(CC[*:1])N1CN(C(=O)CC[*:2])CN(C(=O)CC[*:3])C1; tBuAla = CC(C)(C)C[C@H](N)C(=O)O; Nle = CCCC[C@H](N)C(=O)O

Target: T1, CD137 (Homo sapiens, UniProt Q07011)
T1 construct: Human peripheral blood mononuclear cells (PBMCs) were isolated from buffy coats from two donors; endogenous in cells
T1 sequence (Q07011 24-255): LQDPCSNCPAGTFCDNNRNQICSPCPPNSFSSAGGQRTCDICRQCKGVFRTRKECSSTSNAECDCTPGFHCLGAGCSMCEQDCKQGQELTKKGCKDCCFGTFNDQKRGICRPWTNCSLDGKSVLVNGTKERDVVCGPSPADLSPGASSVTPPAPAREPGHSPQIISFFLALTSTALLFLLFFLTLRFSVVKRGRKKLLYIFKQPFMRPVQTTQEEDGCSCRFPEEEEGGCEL
Test: Fluorescent multimers human T-cell competition (receptor occupancy) assay with BCY7340 as labelling reagent
Format: binding
Conditions: unlabelled multimer titrated, 30 minutes at room temperature; 10 nM BCY7340 label; FIG. 5
Procedure: Human PBMCs were isolated from fresh buffy coats from two donors according to standard protocols. CD8+ T cells were then isolated from the PBMCs by negative magnetic bead selection with a MACS CD8+ T cell isolation kit (negative bead selection) according to the manufacturer's protocol (Miltenyi Biotec). Purified CD8+ T cells were then stimulated for 72 hours in plates coated with CD3 antibody (1 μg/ml) in R10 media (RPMI1640+10% FBS+1× Pen-Strep). Cells were then incubated with a range of concentrations of unlabelled CD137 multimer for 30 minutes at room temperature in 2% FBS. Cells were then washed and stained for FACS analysis. Briefly, cells were stained in 1× Live/Dead BV510 for 15 minutes, washed, and then surface stained with a primary antibody cocktail (CD8-BV785, CD3-BV605, and CD137-PECy5) that included a saturating concentration (10 nM) of BCY7340. Cells were incubated for 30 minutes at room temperature, washed, and fixed in 2% PFA. Cells were run on the BD FACSCelesta and FCS files were analyzed in FlowJo. Cells were gated on Single/Live/Lymphocytes/CD8+(or CD3+)/CD137+ or CD137−. The Alexa Fluor 488 geometric mean of the CD137+ population is shown.

Substance: BCY8945: Non-modified CD137 multimer: 4 x BCY8927, hinge A, SA n=23, attachment Lys(PYA)3 (Ac-C[tBuAla]PK[dA]PYCFADPY[Nle]CA-NH2; linker 1-8-15 via TATA; not fully specified (residue 4); also: tetramer: 4 peptides on central hinge moiety A via spacer SA n=23)
- level of free/unbound CD137 receptor on human T cells (BCY7340 binding): dose responsive decrease in unbound CD137 receptor
